{"source": "patent US20220064329A1", "about": "(Novo Nordisk, published 2022)", "binders": {"B1": {"name": "biAb0241 (bispecific antibody, human IgG4 S228P, kappa)", "heavy 1": "QVQLQESGPGLVKPSQTLSLTCTVSGYSISSDSAWSWIRQPPGKGLEWIGYIQYSGSTNYNPSLKSRVTISRDTSKNQFSLKLSSVTAADTAVYYCARSVNYYGNSFAVGYWGQGTLVTVSSASTKGPSVFPLAPCSRSTSESTAALGCLVKDYFPEPVTVSWNSGALTSGVHTFPAVLQSSGLYSLSSVVTVPSSSLGTKTYTCNVDHKPSNTKVDKRVESKYGPPCPPCPAPEFLGGPSVFLFPPKPKDTLMISRTPEVTCVVVDVSQEDPEVQFNWYVDGVEVHNAKTKPREEQFNSTYRVVSVLTVLHQDWLNGKEYKCKVSNKGLPSSIEKTISKAKGQPREPQVYTLPPSQEEMTKNQVSLTCLVKGFYPSDIAVEWESNGQPENNYKTTPPVLDSDGSFLLYSKLTVDKSRWQEGNVFSCSVMHEALHNHYTQKSLSLSLGK", "light 1": "EIVLTQSPATLSLSPGERATLSCRASQGISDYLHWYQQKPGEAPRLLIKYTSQPATGIPARFSGSGSGTDFTLTISSLEPEDFAVYYCQNGHSFPLTFGQGTKLEIKRTVAAPSVFIFPPSDEQLKSGTASVVCLLNNFYPREAKVQWKVDNALQSGNSQESVTEQDSKDSTYSLSSTLTLSKADYEKHKVYACEVTHQGLSSPVTKSFNRGEC", "heavy 2": "not shown", "light 2": "DIVVSQSPSSLAVSAGEKVTMSCKSSQSLLNSRTRKNYLAWYQQKPGQSPKLLIYWASTRESGVPDRFTGSGSGTDFTLTISSVQAEDLAVYYCKQSYNLLTFGAGTKLELKRTVAAPSVFIFPPSDEQLKSGTASVVCLLNNFYPREAKVQWKVDNALQSGNSQESVTEQDSKDSTYSLSSTLTLSKADYEKHKVYACEVTHQGLSSPVTKSFNRGEC"}, "B2": {"name": "biAb0242 (bispecific antibody, human IgG4 S228P, kappa)", "heavy 1": "QVQLQESGPGLVKPSQTLSLTCTVSGYSISSDSAWSWIRQPPGKGLEWIGYIQYSGSTNYNPSLKSRVTISRDTSKNQFSLKLSSVTAADTAVYYCARSVNYYGNSFAVGYWGQGTLVTVSSASTKGPSVFPLAPCSRSTSESTAALGCLVKDYFPEPVTVSWNSGALTSGVHTFPAVLQSSGLYSLSSVVTVPSSSLGTKTYTCNVDHKPSNTKVDKRVESKYGPPCPPCPAPEFLGGPSVFLFPPKPKDTLMISRTPEVTCVVVDVSQEDPEVQFNWYVDGVEVHNAKTKPREEQFNSTYRVVSVLTVLHQDWLNGKEYKCKVSNKGLPSSIEKTISKAKGQPREPQVYTLPPSQEEMTKNQVSLTCLVKGFYPSDIAVEWESNGQPENNYKTTPPVLDSDGSFLLYSKLTVDKSRWQEGNVFSCSVMHEALHNHYTQKSLSLSLGK", "light 1": "EIVLTQSPATLSLSPGERATLSCRASQGISDYLHWYQQKPGEAPRLLIKYTSQPATGIPARFSGSGSGTDFTLTISSLEPEDFAVYYCQNGHSFPLTFGQGTKLEIKRTVAAPSVFIFPPSDEQLKSGTASVVCLLNNFYPREAKVQWKVDNALQSGNSQESVTEQDSKDSTYSLSSTLTLSKADYEKHKVYACEVTHQGLSSPVTKSFNRGEC", "heavy 2": "not shown", "light 2": "SIVMTQTPKFLLVSAGDRVTITCKASQSVSNDVAWYQQKPGQSPKLLINYASSRYTGIPDRFTGSGYGTDFTFTISTVQAEDLAVYFCQQDYSSPYTFGGGTKLEIERTVAAPSVFIFPPSDEQLKSGTASVVCLLNNFYPREAKVQWKVDNALQSGNSQESVTEQDSKDSTYSLSSTLTLSKADYEKHKVYACEVTHQGLSSPVTKSFNRGEC"}, "B3": {"name": "biAb0243 (bispecific antibody, human IgG4 S228P, kappa)", "heavy 1": "QVQLQESGPGLVKPSQTLSLTCTVSGYSISSDSAWSWIRQPPGKGLEWIGYIQYSGSTNYNPSLKSRVTISRDTSKNQFSLKLSSVTAADTAVYYCARSVNYYGNSFAVGYWGQGTLVTVSSASTKGPSVFPLAPCSRSTSESTAALGCLVKDYFPEPVTVSWNSGALTSGVHTFPAVLQSSGLYSLSSVVTVPSSSLGTKTYTCNVDHKPSNTKVDKRVESKYGPPCPPCPAPEFLGGPSVFLFPPKPKDTLMISRTPEVTCVVVDVSQEDPEVQFNWYVDGVEVHNAKTKPREEQFNSTYRVVSVLTVLHQDWLNGKEYKCKVSNKGLPSSIEKTISKAKGQPREPQVYTLPPSQEEMTKNQVSLTCLVKGFYPSDIAVEWESNGQPENNYKTTPPVLDSDGSFLLYSKLTVDKSRWQEGNVFSCSVMHEALHNHYTQKSLSLSLGK", "light 1": "EIVLTQSPATLSLSPGERATLSCRASQGISDYLHWYQQKPGEAPRLLIKYTSQPATGIPARFSGSGSGTDFTLTISSLEPEDFAVYYCQNGHSFPLTFGQGTKLEIKRTVAAPSVFIFPPSDEQLKSGTASVVCLLNNFYPREAKVQWKVDNALQSGNSQESVTEQDSKDSTYSLSSTLTLSKADYEKHKVYACEVTHQGLSSPVTKSFNRGEC", "heavy 2": "not shown", "light 2": "DIQMTQTTSSLSASLGDRVTISCRASQDISNYLNWYQQKPDGTVKLLIFYTSRLHSGVPSRFSGSGSGTDYSLTISNLEPEDIATYYCQQDTKLPYTFGGGTKLEMKRTVAAPSVFIFPPSDEQLKSGTASVVCLLNNFYPREAKVQWKVDNALQSGNSQESVTEQDSKDSTYSLSSTLTLSKADYEKHKVYACEVTHQGLSSPVTKSFNRGEC"}, "B4": {"name": "biAb0244 (bispecific antibody, human IgG4 S228P, kappa)", "heavy 1": "QVQLKESGPGLVAPSQSLSITCTVSGFSLTDYGVSWIRQPPGKGLEWLGVIWGGGNTYNNSALKSRLSISKDNSKSQVFLKMNSLQADDTAMYFCAKHGYYGYVMDYWGQGTSVTVSSASTKGPSVFPLAPCSRSTSESTAALGCLVKDYFPEPVTVSWNSGALTSGVHTFPAVLQSSGLYSLSSVVTVPSSSLGTKTYTCNVDHKPSNTKVDKRVESKYGPPCPPCPAPEFLGGPSVFLFPPKPKDTLMISRTPEVTCVVVDVSQEDPEVQFNWYVDGVEVHNAKTKPREEQFNSTYRVVSVLTVLHQDWLNGKEYKCKVSNKGLPSSIEKTISKAKGQPREPQVYTLPPSQEEMTKNQVSLTCLVKGFYPSDIAVEWESNGQPENNYKTTPPVLDSDGSFLLYSKLTVDKSRWQEGNVFSCSVMHEALHNHYTQKSLSLSLGK", "light 1": "DIVMTQSHKIMSTLVGDRVSITCKASQDVDPAVAWYQQKPGQYPKLLIYWASTRHTGVPDRFTGSGSGTDFTLTISNVQSEDLADYFCQQYSKYPYTFGGGTKLEIKRTVAAPSVFIFPPSDEQLKSGTASVVCLLNNFYPREAKVQWKVDNALQSGNSQESVTEQDSKDSTYSLSSTLTLSKADYEKHKVYACEVTHQGLSSPVTKSFNRGEC", "heavy 2": "not shown", "light 2": "DIVMTQTPLSSPVTLGQPASISCRSSQSLVHRQGNTYFHWLQQRPGQPPRLLIYKVSNRFSGVPDRFSGSGAGTDFTLKISRVEAEDVGVYYCSQSTHVPYTFGQGTKLEIKRTVAAPSVFIFPPSDEQLKSGTASVVCLLNNFYPREAKVQWKVDNALQSGNSQESVTEQDSKDSTYSLSSTLTLSKADYEKHKVYACEVTHQGLSSPVTKSFNRGEC"}}, "data": [{"target": "T1, recombinant human activated FVII (FVIIa) (human, UniProt P08709 61-212; P08709 213-466, ten glutamate residues of the Gla domain may be gamma-carboxylated)", "T1 sequence 1": "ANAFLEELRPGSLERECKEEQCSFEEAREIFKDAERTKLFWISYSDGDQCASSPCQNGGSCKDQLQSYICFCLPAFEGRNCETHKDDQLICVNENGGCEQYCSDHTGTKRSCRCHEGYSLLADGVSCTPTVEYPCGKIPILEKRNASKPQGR", "T1 sequence 2": "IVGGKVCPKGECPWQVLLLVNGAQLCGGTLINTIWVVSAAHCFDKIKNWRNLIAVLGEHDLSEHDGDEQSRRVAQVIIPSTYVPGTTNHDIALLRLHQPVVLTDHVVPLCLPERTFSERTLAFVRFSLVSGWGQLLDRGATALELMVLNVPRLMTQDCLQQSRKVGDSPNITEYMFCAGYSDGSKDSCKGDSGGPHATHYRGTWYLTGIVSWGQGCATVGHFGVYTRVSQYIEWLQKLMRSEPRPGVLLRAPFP", "assay": "cell-based or functional assay", "units": {"Stimulation (fold): FXa generated by FVIIa with lipidated TLT-1 and 100 nM biAb, relative to free FVIIa": "fold"}, "values": [{"binder": "B1", "Stimulation (fold): FXa generated by FVIIa with lipidated TLT-1 and 100 nM biAb, relative to free FVIIa": 35.3}, {"binder": "B2", "Stimulation (fold): FXa generated by FVIIa with lipidated TLT-1 and 100 nM biAb, relative to free FVIIa": 21.8}, {"binder": "B3", "Stimulation (fold): FXa generated by FVIIa with lipidated TLT-1 and 100 nM biAb, relative to free FVIIa": 25.5}, {"binder": "B4", "Stimulation (fold): FXa generated by FVIIa with lipidated TLT-1 and 100 nM biAb, relative to free FVIIa": 2.7}]}]}
